Assay results taken from patent publication US20190177366A1 (published 2019).
Bridge positions count the residues as written; N and C are the ends. Square brackets hold non-standard residues; d marks the D form. * marks the point of attachment. hArg = N=C(N)NCCCC[C@H](N)C(=O)O; Dap = NC[C@H](N)C(=O)O; Pentanoyl = CCCCC(=O)*

B1: Compound 28 (peptide)
peptide: SGDLMPWNLVRIGLLR
notes: Printed without N-terminal cap and without C-terminal amide
B2: Compound 2 (peptide)
peptide: Ac-TVFTSWEEYLDWVGSGCWNLKRIGSQGC-NH2
modifications: disulfide 17-28
SMILES: CC[C@H](C)[C@@H]1NC(=O)[C@H](CCCNC(=N)N)NC(=O)[C@H](CCCCN)NC(=O)[C@H](CC(C)C)NC(=O)[C@H](CC(N)=O)NC(=O)[C@H](Cc2c[nH]c3ccccc23)NC(=O)[C@@H](NC(=O)CNC(=O)[C@H](CO)NC(=O)CNC(=O)[C@@H](NC(=O)[C@H](Cc2c[nH]c3ccccc23)NC(=O)[C@H](CC(=O)O)NC(=O)[C@H](CC(C)C)NC(=O)[C@H](Cc2ccc(O)cc2)NC(=O)[C@H](CCC(=O)O)NC(=O)[C@H](CCC(=O)O)NC(=O)[C@H](Cc2c[nH]c3ccccc23)NC(=O)[C@H](CO)NC(=O)[C@@H](NC(=O)[C@H](Cc2ccccc2)NC(=O)[C@@H](NC(=O)[C@@H](NC(C)=O)[C@@H](C)O)C(C)C)[C@@H](C)O)C(C)C)CSSC[C@@H](C(N)=O)NC(=O)CNC(=O)[C@H](CCC(N)=O)NC(=O)[C@H](CO)NC(=O)CNC1=O
B3: Compound 229 (peptide)
peptide: Ac-MESFPGWNLV[hArg]IGLLR-NH2
SMILES: CC[C@H](C)[C@H](NC(=O)[C@H](CCCCNC(=N)N)NC(=O)[C@@H](NC(=O)[C@H](CC(C)C)NC(=O)[C@H](CC(N)=O)NC(=O)[C@H](Cc1c[nH]c2ccccc12)NC(=O)CNC(=O)[C@@H]1CCCN1C(=O)[C@H](Cc1ccccc1)NC(=O)[C@H](CO)NC(=O)[C@H](CCC(=O)O)NC(=O)[C@H](CCSC)NC(C)=O)C(C)C)C(=O)NCC(=O)N[C@@H](CC(C)C)C(=O)N[C@@H](CC(C)C)C(=O)N[C@@H](CCCNC(=N)N)C(N)=O
B4: Compound 112 (peptide)
peptide: Pentanoyl-WNLVRIGLTR-NH2
SMILES: CCCCC(=O)N[C@@H](Cc1c[nH]c2ccccc12)C(=O)N[C@@H](CC(N)=O)C(=O)N[C@@H](CC(C)C)C(=O)N[C@H](C(=O)N[C@@H](CCCNC(=N)N)C(=O)N[C@H](C(=O)NCC(=O)N[C@@H](CC(C)C)C(=O)N[C@H](C(=O)N[C@@H](CCCNC(=N)N)C(N)=O)[C@@H](C)O)[C@@H](C)CC)C(C)C
B5: Compound 97 (peptide)
peptide: Ac-GSGCWNL[Dap]RIGSQGC-NH2
modifications: disulfide 4-15
SMILES: CC[C@H](C)[C@@H]1NC(=O)[C@H](CCCNC(=N)N)NC(=O)[C@H](CN)NC(=O)[C@H](CC(C)C)NC(=O)[C@H](CC(N)=O)NC(=O)[C@H](Cc2c[nH]c3ccccc23)NC(=O)[C@@H](NC(=O)CNC(=O)[C@H](CO)NC(=O)CNC(C)=O)CSSC[C@@H](C(N)=O)NC(=O)CNC(=O)[C@H](CCC(N)=O)NC(=O)[C@H](CO)NC(=O)CNC1=O
notes: also called Ac-GSG-CWNL(Dpr)RIGSQGC-NH2

What follows are binders tested against T1, human PCSK9 (proprotein convertase subtilisin/kexin type 9), His-tagged, full-length (human, UniProt A8T644 31-152; Q8NBP7 153-692, limits assumed) (assay: SPR, Biacore T100, His-tagged protein captured on NTA chip (Method 1)).
T1 construct: The secreted protein is the prodomain plus the catalytic/Cys-rich part (N-terminus S153) after autocleavage; also called His-PCSK9; NARC-1
T1 sequence (A8T644 31-152 limits assumed, chain 1 of 2): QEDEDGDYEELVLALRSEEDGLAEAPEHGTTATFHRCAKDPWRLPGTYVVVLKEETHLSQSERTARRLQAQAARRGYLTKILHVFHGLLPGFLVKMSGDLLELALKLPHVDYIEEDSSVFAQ
T1 sequence (A8T644 other isoform, or with tags, fused parts or gaps limits assumed, chain 2 of 2): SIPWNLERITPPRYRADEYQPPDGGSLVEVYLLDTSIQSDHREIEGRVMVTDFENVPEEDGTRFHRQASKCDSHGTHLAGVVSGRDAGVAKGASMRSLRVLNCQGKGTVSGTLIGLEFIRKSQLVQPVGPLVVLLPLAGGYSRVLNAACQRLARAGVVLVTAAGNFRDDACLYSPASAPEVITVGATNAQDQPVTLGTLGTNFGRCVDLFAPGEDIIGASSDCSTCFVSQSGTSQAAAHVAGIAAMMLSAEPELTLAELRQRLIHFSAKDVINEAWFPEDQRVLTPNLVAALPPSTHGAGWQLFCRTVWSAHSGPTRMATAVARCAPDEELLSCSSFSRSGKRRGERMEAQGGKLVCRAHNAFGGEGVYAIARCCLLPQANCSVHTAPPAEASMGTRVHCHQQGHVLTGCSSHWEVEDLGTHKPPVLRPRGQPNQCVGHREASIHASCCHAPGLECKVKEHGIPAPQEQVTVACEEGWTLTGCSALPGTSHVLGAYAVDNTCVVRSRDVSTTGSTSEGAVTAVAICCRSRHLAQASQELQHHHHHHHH

| Kd [nM] | Binder |
| --- | --- |
| 29000 | H-SGCFIPWNLQRIGLLC-NH2 (disulfide 3-16 (inferred)) [Compound 26] |
| 46100 | B1 |
| 2.07 | Ac-TVFTSWEEYLDWVGSGCRLPWNLQRIGLPC-NH2 (disulfide 17-30 (inferred), also called Pep2-8p4; Pep2-8_K9gvpep4) [Compound 19] |
| 5.56 | Ac-TVFTSWEEYLDWVGSGDLMPWNLVRIGLLR-NH2 (also called Pep2-8p7; Pep2-8_K9gvpep7) [Compound 20] |

Each binder was assayed against T1, human PCSK9 (proprotein convertase …) (assay: SPR, Biacore T100, NTA capture, single cycle kinetics (Method 2)).

| Kd [nM] | Binder |
| --- | --- |
| 5740 | Ac-SPCRVGYTPC-NH2 (disulfide 3-10 (inferred)) [Compound 23] |
| 30.3 | B2 |

These binders were tested against T1, human PCSK9 (proprotein convertase …) (assay: TR-FRET competition vs EGF(A)-Fc on His-PCSK9).

| IC50 [nM] | Binder |
| --- | --- |
| > 50000 | Ac-MPWNLVRIGLLR-NH2 [Compound 51] |
| > 50000 | Ac-WNLVRIGLLR-NH2 [Compound 53] |
| > 50000 | Ac-LMPWNLVRIGLLR-NH2 [Compound 50] |
| > 50000 | Ac-ALMPWNLVRIGLLR-NH2 [Compound 45] |
| > 50000 | Ac-DLMPWNLVRIGLAR-NH2 [Compound 55] |
| > 50000 | Ac-PWNLVRIGLLR-NH2 [Compound 52] |

Each binder was assayed against T2, PCSK9Δhelix (human, UniProt Q8NBP7 31-152) (assay: TR-FRET competition, Ab20 as competitor).
T2 construct: domain: prodomain; Construct M1-Q692 with engineered TEV site, cut with TEV; His-tagged (tag not written as a part); also called His-PCSK9Δhelix; open groove PCSK9Δhelix
T2 sequence (Q8NBP7 31-152 limits assumed, stated change not applied, form in doubt, chain 1 of 2): as the sequence (A8T644 31-152 limits assumed, chain 1 of 2) above
T2 sequence (Q8NBP7 other isoform, or with tags, fused parts or gaps mutant limits assumed, form in doubt, chain 2 of 2): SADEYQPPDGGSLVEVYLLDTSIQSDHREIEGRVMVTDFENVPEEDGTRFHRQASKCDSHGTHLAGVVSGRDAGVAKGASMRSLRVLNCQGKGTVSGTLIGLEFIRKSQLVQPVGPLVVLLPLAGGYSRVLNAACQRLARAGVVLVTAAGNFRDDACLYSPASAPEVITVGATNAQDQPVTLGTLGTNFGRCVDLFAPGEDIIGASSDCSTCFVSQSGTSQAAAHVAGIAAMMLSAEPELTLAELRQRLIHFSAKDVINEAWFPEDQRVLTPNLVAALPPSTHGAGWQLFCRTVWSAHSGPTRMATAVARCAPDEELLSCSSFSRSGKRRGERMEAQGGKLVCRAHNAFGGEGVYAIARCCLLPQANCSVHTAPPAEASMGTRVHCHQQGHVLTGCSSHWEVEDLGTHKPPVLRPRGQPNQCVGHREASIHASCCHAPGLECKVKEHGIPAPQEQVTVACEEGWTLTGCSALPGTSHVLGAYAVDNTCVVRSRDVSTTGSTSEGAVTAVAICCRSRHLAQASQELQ

| fold improvement of affinity against Compound 192 [fold] | IC50 [nM] | Binder |
| --- | --- | --- |
| > 6 |  | B3 |
|  | < 10000 | B4 |

Each binder was assayed against T1, human PCSK9 (proprotein convertase …) (assay: SPR, SensiQ Pioneer FE, amine-coupled protein, OneStep gradient injection (Method 3)).

| Kd [nM] | Binder |
| --- | --- |
| 26200 | Ac-MPWNLVRIGLLR-NH2 [Compound 51] |
| 223000 | Ac-WNLVRIGLLR-NH2 [Compound 53] |
| 16100 | Ac-LMPWNLVRIGLLR-NH2 [Compound 50] |
| 522000 | B5 |
| 117000 | Ac-ALMPWNLVRIGLLR-NH2 [Compound 45] |
| 96500 | Ac-DLMPWNLVRIGLAR-NH2 [Compound 55] |
| 17900 | Ac-PWNLVRIGLLR-NH2 [Compound 52] |

Target: T1, human PCSK9 (proprotein convertase …)
Assay: TR-FRET competition vs EGF(A)-Fc on His-PCSK9
Remark: another data set of the same source

| IC50 [nM] | Binder |
| --- | --- |
| 781 | Ac-TVFTSWEEYLDWVGSGGCRLPWNLQRIGLPC-NH2 (disulfide 18-31 (inferred)) [Compound 25] |
| 471 | Ac-TVFTSWEEYLDWVGSGGCFLPWNLQRIGLLC-NH2 (disulfide 18-31 (inferred)) [Compound 38] |
| 9 | Ac-TVFTSWEEYLDWVGSGCRLPWNLQRIGLPC-NH2 (disulfide 17-30 (inferred), also called Pep2-8p4; Pep2-8_K9gvpep4) [Compound 19] |
| 10 | Ac-TVFTSWEEYLDWVGGSGCWNLKRIGSQGC-NH2 (disulfide 18-29 (inferred)) [Compound 13] |
| 9 | Ac-TVFTSWEEYLDWVGSGGCWNLKRIGSQGC-NH2 (disulfide 18-29 (inferred)) [Compound 14] |
| 110 | B2 |
| 190 | Ac-TVFTSWEEYLDWVGSGCWNLKRVGSQGC-NH2 (disulfide 17-28 (inferred)) [Compound 12] |
| 340 | Ac-TVFTSWEEYLDWVGSGCWNLGRIGSQGC-NH2 (disulfide 17-28 (inferred)) [Compound 11] |

Target: T1, human PCSK9 (proprotein convertase …)
Assay: TR-FRET competition vs EGF(A)-Fc on His-PCSK9
Remark: another data set of the same source

| IC50 [nM] | Binder |
| --- | --- |
| 1030 | Ac-TVFTSWEEYLDWVGGSGKLWNLGRV-NH2 [Compound 8] |
| 390 | Ac-TVFTSWEEYLDWVGSGGKLWNLGRV-NH2 [Compound 9] |
| 500 | Ac-TVFTSWEEYLDWVGSGKLWN-NH2 [Compound 7] |
| 720 | Ac-TVFTSWEEYLDWVGSGKLWNLG-NH2 [Compound 5] |
| 490 | Ac-TVFTSWEEYLDWVGSGKLWNLGR-NH2 [Compound 4] |
| 388 | Ac-TVFTSWEEYLDWVGSGKLWNLGRV-NH2 [Compound 1] |
| 37 | Ac-TVFTSWEEYLDWVGSGDLMPWNLVRIGLLR-NH2 (also called Pep2-8p7; Pep2-8_K9gvpep7) [Compound 20] |
| 740 | Ac-TVFTSWEEYLDWVGSGKLWNL-NH2 [Compound 6] |
